B1: human eotaxin (ligand)
chain: not shown
modifications: 125I label (Bolton Hunter reagent) where used as radioligand

Legend:
[1] = molecular target: T1, C-C chemokine receptor 3 (CCR3, CKR-3) of human origin, native, on blood eosinophils and basophils (human, UniProt P51677 1-355); experiment: Scatchard analysis of unlabeled eotaxin competition on human eosinophils
T1 construct: whole, on cells; also called Eos L2 receptor; eosinophilic chemokine receptor
T1 sequence (looked up): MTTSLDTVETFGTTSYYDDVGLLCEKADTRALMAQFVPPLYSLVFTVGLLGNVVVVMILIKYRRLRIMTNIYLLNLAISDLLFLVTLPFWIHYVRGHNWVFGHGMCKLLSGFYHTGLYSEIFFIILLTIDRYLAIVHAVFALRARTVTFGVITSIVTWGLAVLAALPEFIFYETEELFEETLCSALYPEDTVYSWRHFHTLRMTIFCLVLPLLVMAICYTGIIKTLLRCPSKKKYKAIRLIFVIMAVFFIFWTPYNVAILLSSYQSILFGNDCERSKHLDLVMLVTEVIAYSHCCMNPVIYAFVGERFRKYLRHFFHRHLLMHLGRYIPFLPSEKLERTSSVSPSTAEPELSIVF
Procedure: (§1) FIG. 11A) or to human eosinophils (FIG. 11B). […] After 60 minutes at room temperature, cell pellets were washed and counted. Scatchard plots of unlabeled eotaxin competition were calculated from the data (FIG. 11C, E5 cell line; FIG. 11D, eosinophils).
(§2) Competition is presented as the percentage of specific binding as calculated by $100(S-B)/(T-B)$, where S is the radioactivity of the sample, B as background binding and T as total binding without competitors. Background binding was obtained by incubating cells with radiolabeled chemokine and at least 400-fold excess of unlabeled chemokines. […] Duplicates were used throughout the experiments and the standard deviations were always less than 10% of the mean. All experiments were repeated at least three times. Curve fit was calculated by […] software.
(§3) The E5 cell line described in Example 6 was tested for its ability to bind radiolabeled eotaxin. […] In addition, both RANTES and MCP-3 were able to specifically compete for binding. None of the other chemokines tested, including MIP-1α, MIP-1β, or IL-8 were able to specifically compete for radiolabeled ligand (FIG. 12).

[2] = molecular target: T1, C-C chemokine receptor 3 (CCR3, CKR-3) …; experiment: Scatchard analysis, radioligand binding to human eosinophils
Procedure: (§4) In microfuge tubes, 5 ×10^5 cells were incubated with 0.1 nM radiolabeled chemokine (purchased from New England Nuclear, Massachusetts) in 200 µl aliquots at room temperature for 60 minutes. The cells were either incubated with radiolabeled chemokine alone, or together with unlabeled chemokines (from PeproTech) as competitors, which were used at the indicated concentrations. At the end of incubation, cells were washed 3 times in the binding buffer, each wash consisting of centrifugation in a microfuge at 7,000×g for 2 minutes. After the wash, the pellets were transferred into LP3 tubes and the radioactivity of the cells, which represented the amount of binding was measured in a gamma counter. All samples were in duplicates and all the experiments were repeated at least 3 times. Scatchard Plot was calculated from the binding data by MicroSoft Excell and CricketGraph on a Macintosh computer.
(§5) Figure 6: FIG. 6 is a histogram illustrating the binding of RANTES and MIP-1α to human eosinophils. […] Human eosinophils were incubated with 0.1 nM radiolabeled RANTES and the indicated concentrations of cold chemokines. The data plotted are the means and standard deviations of duplicates for each sample.

[3] = molecular target: T2, receptor encoded by the A31 cDNA clone (human CKR-3 / Eos L2) (human, UniProt P51677 1-355); experiment: Scatchard analysis, 125I-RANTES on membranes of A31-293-#20 cells
T2 construct: one RBL transfectant is also mentioned
T2 sequence: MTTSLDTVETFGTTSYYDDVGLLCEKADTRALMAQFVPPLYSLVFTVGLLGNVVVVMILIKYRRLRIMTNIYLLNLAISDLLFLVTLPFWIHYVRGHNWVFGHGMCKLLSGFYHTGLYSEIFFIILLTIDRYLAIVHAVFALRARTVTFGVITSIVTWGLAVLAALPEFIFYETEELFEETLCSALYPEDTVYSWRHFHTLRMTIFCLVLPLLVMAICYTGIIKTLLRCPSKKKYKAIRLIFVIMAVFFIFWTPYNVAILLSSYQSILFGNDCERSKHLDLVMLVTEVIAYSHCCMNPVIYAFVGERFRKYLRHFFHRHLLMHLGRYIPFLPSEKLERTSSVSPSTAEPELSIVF
Procedure: Plates were grown to confluence, and membranes were prepared as follows. Culture medium was removed, and the cells were washed with phosphate buffered saline. Cells were harvested by washing with TEN (40 mM TRIS, pH 7.5, 1 mM EDTA, and 150 mM NaCl). The cells were frozen in liquid nitrogen, thawed at room temperature, and the membrane fraction was collected by centrifugation in a conical tube for 10 minutes at 18,000 rpm. Each binding point was determined using one-half of the membranes harvested from a single 100 mm plate grown to confluence.
Binding assays were performed as described by Van Riper, G. et al., J. Exp. Med., 177: 851 (1993), with the following modifications. […] Binding buffer was 50 mM Hepes, 1 mM CaCl_2, 5 mM MgCl_2, 0.5% BSA, pH 7.2. Radiolabeled and cold ligand were added simultaneously to the membranes (see above), and incubated for 1.5 hours at room temperature. […] Activity retained on filters after washing was determined by scintillation counting. Filters were placed in 5 cc of scintillation fluid and were then counted in a miniaxi-beta liquid scintillation counter (United Technologies, Packard, Downers Grove, Ill.). All points were determined in triplicate, except for the point at 2 nM, which was determined in duplicate. […]

[4] = molecular target: T3, CCR1 on stable L1.2 transfectants (UniProt P32246 1-355, limits assumed); experiment: 125I-RANTES binding to L1.2 CCR1 transfectants
T3 construct: whole, on cells; also called CKR-1; CC CKR1
T3 sequence (looked up): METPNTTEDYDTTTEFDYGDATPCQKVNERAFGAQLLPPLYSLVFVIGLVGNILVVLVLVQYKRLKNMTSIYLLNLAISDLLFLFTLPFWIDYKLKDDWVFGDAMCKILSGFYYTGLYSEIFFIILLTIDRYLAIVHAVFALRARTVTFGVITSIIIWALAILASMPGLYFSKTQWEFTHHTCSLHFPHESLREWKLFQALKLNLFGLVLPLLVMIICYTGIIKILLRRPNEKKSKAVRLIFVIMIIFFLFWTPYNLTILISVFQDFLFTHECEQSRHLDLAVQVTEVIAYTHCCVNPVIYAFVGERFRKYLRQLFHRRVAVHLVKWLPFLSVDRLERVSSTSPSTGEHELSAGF

[5] = molecular target: T1, C-C chemokine receptor 3 (CCR3, CKR-3) …; experiment: heterologous competition of radiolabeled RANTES binding on eosinophils
Procedure: as §4, with “Cells transfected with Eos L2 receptors or normal human eosinophils purified (see above) were washed in Hanks Balanced Saline Solution (HBSS), then resuspended in binding buffer: 50 mM HEPES, 1 mM CaCl_2, 5 mM MgCl_2, 0.5% Bovine Serum Albumin (BSA), pH 7.3. In” for “In”
Figure 6: FIG. 6 is a histogram illustrating the binding of RANTES and MIP-1α to human eosinophils. […] Human eosinophils were incubated with 0.1 nM radiolabeled RANTES and the indicated concentrations of cold chemokines. […]

[6] = molecular target: T1, C-C chemokine receptor 3 (CCR3, CKR-3) …; experiment: inhibition of 0.1 nM 125I-RANTES binding to human eosinophils by varied 7B11
[7] = molecular target: T1, C-C chemokine receptor 3 (CCR3, CKR-3) …; experiment: inhibition of 0.1 nM 125I-MCP-3 binding to human eosinophils by varied 7B11
[8] = molecular target: T1, C-C chemokine receptor 3 (CCR3, CKR-3) …; experiment: inhibition of 0.1 nM 125I-eotaxin binding to human eosinophils by varied 7B11
[9] = molecular target: T4, MIP-1α binding sites on human eosinophils; experiment: Scatchard analysis, radioligand binding to human eosinophils
T4 construct: also called receptor for MIP-1α on eosinophils
Procedure: as §4, §5

[10] = molecular target: B1; experiment: Scatchard analysis of unlabeled eotaxin competition on E5 cells
Procedure: as §1, §2, §3

Work on B1 yielded a Kd [1] of 0.5 nM.

B2: RANTES (ligand, human, UniProt P13501 24-91, looked up)
chain: SPYSSDTTPCCFAYIARPLPRAHIKEYFYTSGKCSNPAVVFVTRKNRQVCANPEKKWVREYINSLEMS
modifications: also: 125I label where used as radioligand
notes: also called cold RANTES
For B2, the Kd [2] was 0.883 nM, the Kd [3] was roughly 2.5 nM and the binding result [4] was “binds”.

B3: MCP-3 (ligand)
chain: not shown
modifications: 125I label where used as radioligand
notes: also called human MCP-3
B3: binds [5].

B4: monoclonal antibody 7B11 (ATCC Accession No. HB-12195) (antibody, V domains shown)
VH: MVQLQQSGTVLARPGASVRMSCKTSGYTFTNYRMHWVRQRPGQGLEWIGSIYPGHTETTYNQNFKDKAKLTAVTSATTAYMGLSSLTNEDSAVYYCTRSGGNYWGQGTTVTVSS
VL: DIQMTQSPSSLSASLGERVSLTCRASQDIGSSLNWLQQKPDGTFIRLIYATSSLDSGVPRRFSGSRSGSDYSLTISSLESEDFVDYYCLQYATFPLTFGAGTKLEIK
In the case of B4, the IC50 [6] is reported as 0.0137 µg/mL, the IC50 [7] is reported as 0.0188 µg/mL and the IC50 [8] is reported as 0.0257 µg/mL.

B5: MIP-1α (ligand, human, UniProt P10147 23-92, looked up)
chain: ASLAADTPTACCFSYTSRQIPQNFIADYFETSSQCSKPGVIFLTKRSRQVCADPSEEWVQKYVSDLELSA
modifications: also: 125I label where used as radioligand
notes: also called macrophage inflammatory protein 1α
B5 showed a Kd [9] of 0.091 nM.

B6: FLAG-tagged Eos L2 (CKR-3) receptor (receptor)
chain: MDYKDDDDKEFTTSLDTVETFGTTSYYDDVGLLCEKADTRALMAQFVPPLYSLVFTFGLLGNVVVVMILIKYRRLRIMTNIYLLNLAISDLLFLVTLPFWIHYVRGHNWVFGHGMCKLLSGFYHTGLYSEIFFIILLTIDRYLAIVHAVFALRARTVTFGVITSIVTWGLAVLAALPEFIFYETEELFEETLCSALYPEDTVYSWRHFHTLRMTIFCLVLPLLVMAICYTGIIKTLLRCPSKKKYKAIRLIFVIMAVFFIFWTPYNVAILLSSYQSILFGNDCERTKHLDLVMLVTEVIAYSHCCMNPVIYAFVGERFRKYLRHFFHRHLLMHLGRYIPFLPSEKLERTSSVSPSTAEPELSIVF
notes: Receptor from the 1.8 kb genomic HindIII fragment, expressed on L1.2 (L1-2) pre-B cells, 293 cells or baculovirus-infected Sf9 cells; also called Eos L2 receptor fusion protein; CKR-3/pcDNA3 product
With B6 the Kd [10] was 1.5 nM.

From patent US7012133 (CHILDREN S MEDICAL CENTER, dated 2006)
